Results as given in patent publication US20090175866A1, “TREATMENT OF B-CELL MALIGNANCIES” (priority 2004, published 2009).

How the values were obtained:
FGFR3 [1] = biological target: T1, FGFR3 (Homo sapiens, UniProt P22607); assay: Affinity and Koff to FGFR3 measured by BIAcore; type: binding
FGFR3 [2] = biological target: T1, FGFR3; assay: FGFR3 domain specificity of binding

T1 sequence (P22607 23-806): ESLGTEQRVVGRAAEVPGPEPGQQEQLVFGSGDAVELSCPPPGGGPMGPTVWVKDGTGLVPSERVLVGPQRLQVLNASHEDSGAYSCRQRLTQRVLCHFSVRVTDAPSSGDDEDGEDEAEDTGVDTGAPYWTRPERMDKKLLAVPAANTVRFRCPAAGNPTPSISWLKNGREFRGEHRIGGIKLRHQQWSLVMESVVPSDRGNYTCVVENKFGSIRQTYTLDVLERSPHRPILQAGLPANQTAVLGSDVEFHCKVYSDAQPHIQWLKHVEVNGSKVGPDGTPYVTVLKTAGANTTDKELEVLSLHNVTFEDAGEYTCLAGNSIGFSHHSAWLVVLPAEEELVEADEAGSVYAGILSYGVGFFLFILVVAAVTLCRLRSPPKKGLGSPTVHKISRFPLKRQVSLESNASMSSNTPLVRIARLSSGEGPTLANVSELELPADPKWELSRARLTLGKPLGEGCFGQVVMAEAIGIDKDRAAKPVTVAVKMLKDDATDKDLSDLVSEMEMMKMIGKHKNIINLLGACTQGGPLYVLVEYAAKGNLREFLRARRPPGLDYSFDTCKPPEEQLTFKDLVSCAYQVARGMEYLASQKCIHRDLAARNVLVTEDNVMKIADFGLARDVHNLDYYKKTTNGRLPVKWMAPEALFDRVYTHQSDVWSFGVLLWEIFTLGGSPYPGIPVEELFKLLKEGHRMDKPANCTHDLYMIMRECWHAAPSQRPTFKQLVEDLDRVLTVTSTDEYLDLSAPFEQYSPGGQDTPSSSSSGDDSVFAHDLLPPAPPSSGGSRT

| Kd (FGFR3 [1]) [nM] | FGFR3 Domain Specificity (FGFR3 [2]) | Molecule |
| --- | --- | --- |
| 6 | 3c | PRO-029: HuCAL anti-FGFR3 clone; VH-CDR3 SEQ ID NO:7, VL-CDR3 SEQ ID NO:16 (antibody, V domains shown) VH: QVQLVQSGAEVKKPGASVKVSCKASGYTFTSYYMHWVRQAPGQGLEWMGWINPNSGGTNYAQKFQGRVTMTRDTSISTAYMELSSLRSEDTAVYYCARTWQYSYFYYLDGGYYFDIWGQGTLVTVSS VL: DIVLTQSPATLSLSPGERATLSCRASQSVSSSYLAWYQQKPGQAPRLLIYGASSRATGVPARFSGSGSGTDFTLTISSLEPEDFATYYCQQTNNAPVTFGQGTKVEIKRT |
| 37 | 2 | PRO-002: HuCAL anti-FGFR3 clone; VH-CDR3 SEQ ID NO:2, VL-CDR3 SEQ ID NO:11 (antibody, V domains shown) VH: QVQLVQSGAEVKKPGASVKVSCKASGYTFTSYYMHWVRQAPGQGLEWMGWINPNSGGTNYAQKFQGRVTMTRDTSISTAYMELSSLRSEDTAVYYCARDFLGYEFDYWGQGTLVTVSS VL: DIELTQPPSVSVAPGQTARISCSGDALGDKYASWYQQKPGQAPVLVIYDDSDRPSGIPERFSGSNSGNTATLTISGTQAEDEADYYCQSYDYSADYVFGGGTKLTVLGQ |
| 14 | 2 | PRO-012: HuCAL anti-FGFR3 clone; VH-CDR3 SEQ ID NO:3, VL-CDR3 SEQ ID NO:12 (antibody, V domains shown) VH: QVQLKESGPALVKPTQTLTLTCTFSGFSLSTSGVGVGWIRQPPGKALEWLALIDWDDDKYYSTSLKTRLTISKDTSKNQVVLTMTNMDPVDTATYYCARYHSWYEMGYYGSTVGYMFDYWGQGTLVTVSS VL: DIELTQPPSVSVAPGQTARISCSGDALGDKYASWYQQKPGQAPVLVIYDDSDRPSGIPERFSGSNSGNTATLTISGTQAEDEADYYCQSYDFDFAVFGGGTKLTVLGQ |
| 3.7 | 3c | PRO-054: HuCAL anti-FGFR3 clone; VH-CDR3 SEQ ID NO:8, VL-CDR3 SEQ ID NO:17 (antibody, V domains shown) VH: QVQLVQSGAEVKKPGASVKVSCKASGYTFTSYYMHWVRQAPGQGLEWMGWINPNSGGTNYAQKFQGRVTMTRDTSISTAYMELSSLRSEDTAVYYCARNMAYTNYQYVNMPHFDYWGQGTLVTVSS VL: DIELTQPPSVSVAPGQTARISCSGDALGDKYASWYQQKPGQAPVLVIYDDSDRPSGIPERFSGSNSGNTATLTISGTQAEDEADYYCQSYDYFKLVFGGGTKLTVLGQ |
| 4 | 3c | PRO-026: HuCAL anti-FGFR3 clone; VH-CDR3 SEQ ID NO:6, VL-CDR3 SEQ ID NO:15 (antibody, V domains shown) VH: QVQLVQSGAEVKKPGASVKVSCKASGYTFTSYYMHWVRQAPGQGLEWMGWINPNSGGTNYAQKFQGRVTMTRDTSISTAYMELSSLRSEDTAVYYCARGYWYAYFTYINYGYFDNWGQGTLVTVSS VL: DIALTQPASVSGSPGQSITISCTGTSSDVGGYNYVSWYQQHPGKAPKLMIYDVSNRPSGVSNRFSGSKSGNTASLTISGLQAEDEADYYCQSYDNNSDVVFGGGTKLTVLGQ |
| 2.9 | 3c | PRO-055: HuCAL anti-FGFR3 clone; VH-CDR3 SEQ ID NO:9, VL-CDR3 SEQ ID NO:18 (antibody, V domains shown) VH: QVQLVQSGAEVKKPGASVKVSCKASGYTFTSYYMHWVRQAPGQGLEWMGWINPNSGGTNYAQKFQGRVTMTRDTSISTAYMELSSLRSEDTAVYYCARSMNSTMYWYLRRVLFDHWGQGTLVTVSS VL: DIALTQPASVSGSPGQSITISCTGTSSDVGGYNYVSWYQQHPGKAPKLMIYDVSNRPSGVSNRFSGSKSGNTASLTISGLQAEDEADYYCQSYDMYNYIVFGGGTKLTVLGQ |
